Measured values published in patent US8663912B2, “Fluorogenic substrate for ADAMTS13” (Washington University, priority 2011, dated 2014).
* marks the point of attachment. X1 = CC1(C)C(/C=C/C2=C(Cl)C(=C/C=C3/N(CCCCCC(=O)*)c4ccc5cc(S(=O)(=O)O)ccc5c4C3(C)C)/CCC2)=[N+](CCCS(=O)(=O)[O-])c2ccc(N(CCCS(=O)(=O)O)CCCS(=O)(=O)O)cc21; X2 = CC(C)(C)c1cc(/C=C/C=C2\N(CCCS(=O)(=O)O)c3ccc(S(=O)(=O)O)cc3C2(C)CCCC(=O)CCN2C(=O)CC(*)C2=O)c2ccc(N(CCCS(=O)(=O)[O-])CCCS(=O)(=O)O)cc2[o+]1

Assay: Solubility of substrate in water
Assay type: physicochemical
Conditions: sodium salt
Source text: The present inventors have tested several combinations of donor and quencher groups chosen for lack of interference from blood proteins. For example, modification at Cys^1610 with Alexa Fluor 594 maleimide (abs 590 nm, em 617 nm, ε 96,000) and at N-terminal. […] In one embodiment, a substrate of the present teachings is modified at Cys^1610 with DyLight 633-maleimide (Thermo, abs 638 nm, em 658 nm, ε 170,000), and at N-terminal Gly with IRDye QC-1 N-hydroxysuccinimidyl ester (LI-COR, abs 737 nm, ε 96,000). […] After RP-HPLC purification the doubly-labeled substrate (FRETS-rVWF71) is soluble at >50 μM.
In these experiments, DyLight 633 maleimide (Thermo Scientific, Waltham, Mass.) 1 mg/100 μL in dimethyl sulfoxide (DMSO) was added dropwise with stirring to peptide VWF71 (10 mg) in ≦2 mL of 100 mM sodium phosphate, pH 7.1, in the dark, and stirred overnight at room temperature. The product DyLight 633-rVWF71 was purified by HPLC on C18 using the TEAA/acetonitrile solvent system as described for the purification of VWF71. DyLight 633-rVWF71 was lyophilized and desalted on a small column of PD-10 in ≦2 mL of 100 mM sodium phosphate, pH 7.9. IRDye QC-1 N-hydroxysuccinimide ester 0.5 mg in 100 μL DMSO was added dropwise with stirring and the solution was stirred overnight at room temperature protected from light. […]

For “X1-GQAPNLVYMVTGC(X2)PASDEIRRLPGDIQVVPIGVGPNANVQELERIGWPNAPILIQDFETLPREAPDLVLQR [FRETS-rVWF71]”, the solubility was over 250 µM.
